One block for each binder: values may come before it.
Assays:
Test in all cases: holdup assay
Design in all cases: key: below the threshold = too weak to quantify, mostly under pKd 3.1 to 4
TJP1_2, Q07157 = target: TJP1_2, Q07157
MAGI3_2, Q5TCQ9 = target: MAGI3_2, Q5TCQ9
DLG5_1, Q8TDM6 = target: DLG5_1, Q8TDM6
GRIP1_7, Q9Y3R0 = target: T1, GRIP1_7, Q9Y3R0
T1 sequence (Q9Y3R0 999-1096, limits assumed, looked up): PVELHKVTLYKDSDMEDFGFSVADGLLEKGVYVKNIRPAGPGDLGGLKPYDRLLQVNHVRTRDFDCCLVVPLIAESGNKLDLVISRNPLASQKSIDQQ

PICK1, Q9NRD5 = target: PICK1, Q9NRD5
TJP3_3, O95049 = target: T2, TJP3_3, O95049
T2 sequence (O95049 375-456, limits assumed, looked up): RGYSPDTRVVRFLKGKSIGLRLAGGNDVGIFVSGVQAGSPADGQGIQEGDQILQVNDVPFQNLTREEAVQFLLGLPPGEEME

GRID2IP_2, A4D2P6 = target: GRID2IP_2, A4D2P6
LIN7C, Q9NUP9 = target: T3, LIN7C, Q9NUP9
T3 sequence (Q9NUP9 88-185, limits assumed, looked up): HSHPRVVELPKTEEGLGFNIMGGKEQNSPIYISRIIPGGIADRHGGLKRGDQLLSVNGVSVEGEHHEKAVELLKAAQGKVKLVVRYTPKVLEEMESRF

LNX2_3, Q8N448 = target: T4, LNX2_3, Q8N448
T4 sequence (Q8N448 463-564, limits assumed, looked up): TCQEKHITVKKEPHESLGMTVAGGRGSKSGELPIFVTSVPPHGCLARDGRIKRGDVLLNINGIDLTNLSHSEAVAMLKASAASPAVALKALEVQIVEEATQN

Inadl_2, Q8NI35 = target: Inadl_2, Q8NI35
HTRA2, O43464 = target: HTRA2, O43464
Inadl_10, Q8NI35 = target: Inadl_10, Q8NI35
GRID2IP_1, A4D2P6 = target: GRID2IP_1, A4D2P6
GRIP2_7, Q9C0E4 = target: GRIP2_7, Q9C0E4
DFNB31_3, Q9P202 = target: T5, DFNB31_3, Q9P202
T5 sequence (Q9P202 811-907, limits assumed, looked up): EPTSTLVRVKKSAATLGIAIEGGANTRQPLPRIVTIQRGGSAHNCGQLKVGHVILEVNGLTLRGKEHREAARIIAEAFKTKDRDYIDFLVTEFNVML

NHERF4_1, Q86UT5-2 = target: NHERF4_1, Q86UT5-2
DFNB31_2, Q9P202 = target: T6, DFNB31_2, Q9P202
T6 sequence (Q9P202 274-371, limits assumed, looked up): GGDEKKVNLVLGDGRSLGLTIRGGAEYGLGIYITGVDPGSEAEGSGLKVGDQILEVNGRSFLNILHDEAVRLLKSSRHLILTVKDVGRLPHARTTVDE

SNTB1, Q13884 = target: T7, SNTB1, Q13884
T7 sequence (Q13884 107-205, limits assumed, looked up): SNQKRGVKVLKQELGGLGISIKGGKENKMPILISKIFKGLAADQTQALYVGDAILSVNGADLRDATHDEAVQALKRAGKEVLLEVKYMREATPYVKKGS

Inadl_1, Q8NI35 = target: Inadl_1, Q8NI35
SCRIB_2, Q14160 = target: SCRIB_2, Q14160
TJP1_3, Q07157 = target: TJP1_3, Q07157
MPP7, Q5T2T1 = target: T8, MPP7, Q5T2T1
T8 sequence (Q5T2T1 134-230, limits assumed, looked up): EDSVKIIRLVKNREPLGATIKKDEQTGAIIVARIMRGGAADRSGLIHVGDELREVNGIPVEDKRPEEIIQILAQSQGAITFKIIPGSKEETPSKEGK

GORASP1, Q9BQQ3 = target: GORASP1, Q9BQQ3
GRIP2_5, Q9C0E4 = target: GRIP2_5, Q9C0E4
Inadl_6, Q8NI35 = target: Inadl_6, Q8NI35
LNX1_1, Q8TBB1 = target: LNX1_1, Q8TBB1
CASK, O14936 = target: CASK, O14936
MPDZ_10, O75970 = target: T9, MPDZ_10, O75970
T9 sequence (O75970 1624-1722, limits assumed, looked up): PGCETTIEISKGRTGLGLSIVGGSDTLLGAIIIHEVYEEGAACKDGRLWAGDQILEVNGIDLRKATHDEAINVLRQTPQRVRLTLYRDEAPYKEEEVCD

[1] = plain residues with an end cap or a label only (N-terminal biotin on a linker: ttds)
[2] = plain residues with an end cap or a label only (N-terminal biotin on a linker: ahx)
[3] = plain residues with an end cap or a label only (N-terminal biotin on a linker: ado-ado)

Sequence of PICK1, Q9NRD5 (Q9NRD5 17-115): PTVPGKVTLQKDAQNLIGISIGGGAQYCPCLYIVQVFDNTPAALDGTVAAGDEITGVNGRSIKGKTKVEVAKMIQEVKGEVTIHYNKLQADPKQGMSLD
Sequence of GRID2IP_1, A4D2P6 (A4D2P6 1-87): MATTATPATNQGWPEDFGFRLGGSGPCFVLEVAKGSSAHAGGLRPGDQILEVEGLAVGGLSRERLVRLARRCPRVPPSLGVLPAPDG
Sequence of Inadl_10, Q8NI35 (Q8NI35 1673-1763): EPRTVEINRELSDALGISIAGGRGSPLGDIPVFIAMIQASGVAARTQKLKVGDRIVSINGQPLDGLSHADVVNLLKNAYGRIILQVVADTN
Sequence of GRIP2_7, Q9C0E4 (Q9C0E4 934-1023): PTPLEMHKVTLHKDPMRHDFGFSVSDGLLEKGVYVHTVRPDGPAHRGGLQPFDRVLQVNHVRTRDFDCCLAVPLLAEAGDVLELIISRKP
Sequence of DLG5_1, Q8TDM6 (Q8TDM6 617-713): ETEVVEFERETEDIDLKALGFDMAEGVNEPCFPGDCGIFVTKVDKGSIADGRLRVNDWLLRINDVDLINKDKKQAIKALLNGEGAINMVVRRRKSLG
Sequence of GRID2IP_2, A4D2P6 (A4D2P6 272-370): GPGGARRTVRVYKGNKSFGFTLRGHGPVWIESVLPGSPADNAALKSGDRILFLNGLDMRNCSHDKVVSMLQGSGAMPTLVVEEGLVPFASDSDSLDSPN
Sequence of GRIP2_5, Q9C0E4 (Q9C0E4 544-642): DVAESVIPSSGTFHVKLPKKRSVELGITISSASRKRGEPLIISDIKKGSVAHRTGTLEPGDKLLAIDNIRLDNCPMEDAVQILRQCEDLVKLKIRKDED
Sequence of HTRA2, O43464 (O43464 355-458): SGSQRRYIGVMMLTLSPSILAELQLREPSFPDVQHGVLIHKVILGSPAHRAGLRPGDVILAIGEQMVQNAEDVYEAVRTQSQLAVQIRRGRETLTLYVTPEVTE
Sequence of Inadl_2, Q8NI35 (Q8NI35 238-335): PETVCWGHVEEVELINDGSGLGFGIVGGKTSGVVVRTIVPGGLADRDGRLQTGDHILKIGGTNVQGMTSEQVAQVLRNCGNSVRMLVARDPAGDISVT
Sequence of Inadl_6, Q8NI35 (Q8NI35 1058-1167): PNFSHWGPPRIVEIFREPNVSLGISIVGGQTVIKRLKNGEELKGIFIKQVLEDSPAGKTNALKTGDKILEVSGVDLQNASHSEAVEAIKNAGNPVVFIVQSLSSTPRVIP
Sequence of NHERF4_1, Q86UT5-2 (Q86UT5 other isoform, or with tags, fused parts or gaps): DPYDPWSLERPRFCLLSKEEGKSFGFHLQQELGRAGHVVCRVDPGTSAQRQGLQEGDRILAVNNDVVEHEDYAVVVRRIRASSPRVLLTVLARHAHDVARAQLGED
Sequence of GORASP1, Q9BQQ3 (Q9BQQ3 1-208): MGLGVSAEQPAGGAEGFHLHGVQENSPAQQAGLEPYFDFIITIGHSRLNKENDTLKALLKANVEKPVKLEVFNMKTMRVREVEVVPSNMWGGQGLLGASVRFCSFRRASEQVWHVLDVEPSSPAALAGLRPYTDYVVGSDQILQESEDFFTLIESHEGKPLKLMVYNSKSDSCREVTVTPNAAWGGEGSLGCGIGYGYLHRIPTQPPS
Sequence of CASK, O14936 (O14936 487-570): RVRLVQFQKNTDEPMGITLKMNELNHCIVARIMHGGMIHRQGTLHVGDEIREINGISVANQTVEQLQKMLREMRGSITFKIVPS
Sequence of LNX1_1, Q8TBB1 (Q8TBB1 261-371): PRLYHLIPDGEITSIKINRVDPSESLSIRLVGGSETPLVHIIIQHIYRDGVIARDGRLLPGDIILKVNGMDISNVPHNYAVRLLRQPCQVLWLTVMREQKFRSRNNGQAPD
Sequence of SCRIB_2, Q14160 (Q14160 857-960): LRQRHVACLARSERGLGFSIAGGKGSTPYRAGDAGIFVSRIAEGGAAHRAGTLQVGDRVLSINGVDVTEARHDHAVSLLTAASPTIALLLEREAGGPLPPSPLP
Sequence of TJP1_2, Q07157 (Q07157 181-274): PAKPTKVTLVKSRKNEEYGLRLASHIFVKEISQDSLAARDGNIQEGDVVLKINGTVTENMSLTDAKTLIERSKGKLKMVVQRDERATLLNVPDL
Sequence of Inadl_1, Q8NI35 (Q8NI35 113-229): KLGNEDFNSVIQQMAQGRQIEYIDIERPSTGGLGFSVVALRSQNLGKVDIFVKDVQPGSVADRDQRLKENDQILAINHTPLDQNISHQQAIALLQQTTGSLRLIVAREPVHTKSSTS
Sequence of MAGI3_2, Q5TCQ9 (Q5TCQ9 398-503): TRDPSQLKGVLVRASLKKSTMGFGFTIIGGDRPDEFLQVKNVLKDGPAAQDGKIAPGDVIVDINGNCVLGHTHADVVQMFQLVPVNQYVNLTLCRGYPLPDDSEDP
Sequence of TJP1_3, Q07157 (Q07157 416-512): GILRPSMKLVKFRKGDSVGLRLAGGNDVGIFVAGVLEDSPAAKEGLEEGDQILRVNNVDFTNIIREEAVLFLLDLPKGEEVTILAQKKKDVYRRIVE

pKd (TJP1_2, Q07157; [1]): below the threshold
pKd (MAGI3_2, Q5TCQ9; [1]): 4.17
pKd (DLG5_1, Q8TDM6; [1]): below the threshold
pKd (GRIP1_7, Q9Y3R0; [1]): below the threshold
pKd (PICK1, Q9NRD5; [1]): below the threshold
pKd (TJP3_3, O95049; [1]): below the threshold
pKd (GRID2IP_2, A4D2P6; [1]): 3.53
pKd (LIN7C, Q9NUP9; [1]): below the threshold
pKd (LNX2_3, Q8N448; [1]): below the threshold
pKd (Inadl_2, Q8NI35; [1]): below the threshold
pKd (HTRA2, O43464; [1]): below the threshold
pKd (Inadl_10, Q8NI35; [1]): below the threshold
pKd (GRID2IP_1, A4D2P6; [1]): below the threshold
pKd (GRIP2_7, Q9C0E4; [1]): below the threshold
pKd (DFNB31_3, Q9P202; [1]): below the threshold
pKd (NHERF4_1, Q86UT5-2; [1]): 3.85
pKd (DFNB31_2, Q9P202; [1]): below the threshold
pKd (SNTB1, Q13884; [1]): 4.71
pKd (Inadl_1, Q8NI35; [1]): below the threshold
pKd (SCRIB_2, Q14160; [1]): 3.65
pKd (TJP1_3, Q07157; [1]): below the threshold
pKd (MPP7, Q5T2T1; [1]): below the threshold
pKd (GORASP1, Q9BQQ3; [1]): below the threshold
pKd (GRIP2_5, Q9C0E4; [1]): below the threshold
pKd (Inadl_6, Q8NI35; [1]): 3.55
pKd (LNX1_1, Q8TBB1; [1]): below the threshold
pKd (CASK, O14936; [1]): below the threshold
pKd (MPDZ_10, O75970; [1]): below the threshold
Binder: GARVSKETPL [MAPK12, P53778]

pKd (TJP1_2, Q07157; [2]): below the threshold
pKd (MAGI3_2, Q5TCQ9; [2]): 3.59
pKd (DLG5_1, Q8TDM6; [2]): below the threshold
pKd (GRIP1_7, Q9Y3R0; [2]): below the threshold
pKd (PICK1, Q9NRD5; [2]): below the threshold
pKd (TJP3_3, O95049; [2]): below the threshold
pKd (GRID2IP_2, A4D2P6; [2]): below the threshold
pKd (LIN7C, Q9NUP9; [2]): below the threshold
pKd (LNX2_3, Q8N448; [2]): below the threshold
pKd (Inadl_2, Q8NI35; [2]): below the threshold
pKd (HTRA2, O43464; [2]): below the threshold
pKd (Inadl_10, Q8NI35; [2]): 3.62
pKd (GRID2IP_1, A4D2P6; [2]): below the threshold
pKd (GRIP2_7, Q9C0E4; [2]): below the threshold
pKd (DFNB31_3, Q9P202; [2]): below the threshold
pKd (NHERF4_1, Q86UT5-2; [2]): below the threshold
pKd (DFNB31_2, Q9P202; [2]): below the threshold
pKd (SNTB1, Q13884; [2]): 3.78
pKd (Inadl_1, Q8NI35; [2]): below the threshold
pKd (SCRIB_2, Q14160; [2]): 3.95
pKd (TJP1_3, Q07157; [2]): below the threshold
pKd (MPP7, Q5T2T1; [2]): below the threshold
pKd (GORASP1, Q9BQQ3; [2]): below the threshold
pKd (GRIP2_5, Q9C0E4; [2]): below the threshold
pKd (Inadl_6, Q8NI35; [2]): below the threshold
pKd (LNX1_1, Q8TBB1; [2]): below the threshold
pKd (CASK, O14936; [2]): below the threshold
pKd (MPDZ_10, O75970; [2]): 3.81
Binder: HSATSVHTSV [MTMR1, Q13613]

pKd (TJP1_2, Q07157; [1]): below the threshold
pKd (MAGI3_2, Q5TCQ9; [1]): below the threshold
pKd (DLG5_1, Q8TDM6; [1]): below the threshold
pKd (GRIP1_7, Q9Y3R0; [1]): below the threshold
pKd (PICK1, Q9NRD5; [1]): below the threshold
pKd (TJP3_3, O95049; [1]): 3.5
pKd (GRID2IP_2, A4D2P6; [1]): below the threshold
pKd (LIN7C, Q9NUP9; [1]): below the threshold
pKd (LNX2_3, Q8N448; [1]): below the threshold
pKd (Inadl_2, Q8NI35; [1]): below the threshold
pKd (HTRA2, O43464; [1]): 3.52
pKd (Inadl_10, Q8NI35; [1]): below the threshold
pKd (GRID2IP_1, A4D2P6; [1]): below the threshold
pKd (GRIP2_7, Q9C0E4; [1]): below the threshold
pKd (DFNB31_3, Q9P202; [1]): below the threshold
pKd (NHERF4_1, Q86UT5-2; [1]): below the threshold
pKd (DFNB31_2, Q9P202; [1]): below the threshold
pKd (SNTB1, Q13884; [1]): below the threshold
pKd (Inadl_1, Q8NI35; [1]): below the threshold
pKd (SCRIB_2, Q14160; [1]): below the threshold
pKd (TJP1_3, Q07157; [1]): below the threshold
pKd (MPP7, Q5T2T1; [1]): below the threshold
pKd (GORASP1, Q9BQQ3; [1]): below the threshold
pKd (GRIP2_5, Q9C0E4; [1]): below the threshold
pKd (Inadl_6, Q8NI35; [1]): below the threshold
pKd (LNX1_1, Q8TBB1; [1]): below the threshold
pKd (CASK, O14936; [1]): below the threshold
pKd (MPDZ_10, O75970; [1]): below the threshold
Binder: DLDEEEDTHL [PODXL, O00592]

More lines, now with the values behind:

Binder: IGHEDLETAV [DGKI, O75912]
pKd (TJP1_2, Q07157; [3]): below the threshold
pKd (MAGI3_2, Q5TCQ9; [3]): 4.56
pKd (DLG5_1, Q8TDM6; [3]): below the threshold
pKd (GRIP1_7, Q9Y3R0; [3]): below the threshold
pKd (PICK1, Q9NRD5; [3]): below the threshold
pKd (TJP3_3, O95049; [3]): below the threshold
pKd (GRID2IP_2, A4D2P6; [3]): 3.79
pKd (LIN7C, Q9NUP9; [3]): 4.57
pKd (LNX2_3, Q8N448; [3]): below the threshold
pKd (Inadl_2, Q8NI35; [3]): below the threshold
pKd (HTRA2, O43464; [3]): below the threshold
pKd (Inadl_10, Q8NI35; [3]): below the threshold
pKd (GRID2IP_1, A4D2P6; [3]): below the threshold
pKd (GRIP2_7, Q9C0E4; [3]): below the threshold
pKd (DFNB31_3, Q9P202; [3]): 3.92
pKd (NHERF4_1, Q86UT5-2; [3]): below the threshold
pKd (DFNB31_2, Q9P202; [3]): below the threshold
pKd (SNTB1, Q13884; [3]): 5.08
pKd (Inadl_1, Q8NI35; [3]): below the threshold
pKd (SCRIB_2, Q14160; [3]): 4.83
pKd (TJP1_3, Q07157; [3]): below the threshold
pKd (MPP7, Q5T2T1; [3]): below the threshold
pKd (GORASP1, Q9BQQ3; [3]): below the threshold
pKd (GRIP2_5, Q9C0E4; [3]): below the threshold
pKd (Inadl_6, Q8NI35; [3]): 4.1
pKd (LNX1_1, Q8TBB1; [3]): 3.58
pKd (CASK, O14936; [3]): below the threshold
pKd (MPDZ_10, O75970; [3]): below the threshold

Binder: KQVVPFSSSV [GDA, Q9Y2T3]
pKd (TJP1_2, Q07157; [1]): below the threshold
pKd (MAGI3_2, Q5TCQ9; [1]): 3.81
pKd (DLG5_1, Q8TDM6; [1]): below the threshold
pKd (GRIP1_7, Q9Y3R0; [1]): below the threshold
pKd (PICK1, Q9NRD5; [1]): below the threshold
pKd (TJP3_3, O95049; [1]): below the threshold
pKd (GRID2IP_2, A4D2P6; [1]): 3.6
pKd (LIN7C, Q9NUP9; [1]): below the threshold
pKd (LNX2_3, Q8N448; [1]): below the threshold
pKd (Inadl_2, Q8NI35; [1]): below the threshold
pKd (HTRA2, O43464; [1]): below the threshold
pKd (Inadl_10, Q8NI35; [1]): below the threshold
pKd (GRID2IP_1, A4D2P6; [1]): below the threshold
pKd (GRIP2_7, Q9C0E4; [1]): below the threshold
pKd (DFNB31_3, Q9P202; [1]): below the threshold
pKd (NHERF4_1, Q86UT5-2; [1]): below the threshold
pKd (DFNB31_2, Q9P202; [1]): below the threshold
pKd (SNTB1, Q13884; [1]): 3.65
pKd (Inadl_1, Q8NI35; [1]): below the threshold
pKd (SCRIB_2, Q14160; [1]): below the threshold
pKd (TJP1_3, Q07157; [1]): below the threshold
pKd (MPP7, Q5T2T1; [1]): below the threshold
pKd (GORASP1, Q9BQQ3; [1]): below the threshold
pKd (GRIP2_5, Q9C0E4; [1]): below the threshold
pKd (Inadl_6, Q8NI35; [1]): below the threshold
pKd (LNX1_1, Q8TBB1; [1]): 3.84
pKd (CASK, O14936; [1]): below the threshold
pKd (MPDZ_10, O75970; [1]): 3.93
